Test results as given in article PMC11559089.

Legend:
[1] = biological target: full-length HIV-1 integrase Y99H/A128T (HIV-1); experiment: SEC; Superdex 200 10/300 GL; 20 µM IN; 20 mM HEPES pH 7.5, 1 M NaCl, 10% glycerol, 5 mM BME; 0.3 mL/min; incubated 1 h at 4°C; size by protein standards; no inhibitor
[2] = biological target: full-length WT HIV-1 integrase (IN) (HIV-1); experiment: as above

Row | Substance | stoichiometry N [1] | stoichiometry N [2]
1 | full-length HIV-1 integrase Y99H/A128T (enzyme) | 4 | 
2 | full-length WT HIV-1 integrase (IN) (enzyme) |  | 4
